Reference: IntAct's records for PubMed 31515488

B1: Zinc finger and BTB domain-containing protein 49 (Homo sapiens), Q6ZSB9 (parent)
chain: MDPVATHSCHLLQQLHEQRIQGLLCDCMLVVKGVCFKAHKNVLAAFSQYFRSLFQNSSSQKNDVFHLDVKNVSGIGQILDFMYTSHLDLNQDNIQVMLDTAQCLQVQNVLSLCHTFLKSATVVQPPGMPCNSTLSLQSTLTPDATCVISENYPPHLLQECSADAQQNKTLDESHPHASPSVNRHHSAGEISKQAPDTSDGSCTELPFKQPNYYYKLRNFYSKQYHKHAAGPSQERVVEQPFAFSTSTDLTTVESQPCAVSHSECILESPEHLPSNFLAQPVNDSAPHPESDATCQQPVKQMRLKKAIHLKKLNFLKSQKYAEQVSEPKSDDGLTKRLESASKNTLEKASSQSAEEKESEEVVSCENFNCISETERPEDPAALEDQSQTLQSQRQYACELCGKPFKHPSNLELHKRSHTGEKPFECNICGKHFSQAGNLQTHLRRHSGEKPYICEICGKRFAASGDVQRHIIIHSGEKPHLCDICGRGFSNFSNLKEHKKTHTADKVFTCDECGKSFNMQRKLVKHRIRHTGERPYSCSACGKCFGGSGDLRRHVRTHTGEKPYTCEICNKCFTRSAVLRRHKKMHCKAGDESPDVLEELSQAIETSDLEKSQSSDSFSQDTSVTLMPVSVKLPVHPVENSVAEFDSHSGGSYCKLRSMIQPHGVSDQEKLSLDPGKLAKPQMQQTQPQAYAYSDVDTPAGGEPLQADGMAMIRSSLAALDNHGGDPLGSRASSTTYRNSEGQFFSSMTLWGLAMKTLQNENELDQ
B2: Zinc finger protein 655 (Homo sapiens), Q8N720 (parent)
chain: MEEIPAQEAAGSPRVQFQSLETQSECLSPEPQFVQDTDMEQGLTGDGETREENKLLIPKQKISEEVHSYKVRVGRLKHDITQVPETREVYKSEDRLERLQEILRKFLYLEREFRQITISKETFTSEKNNECHEPEKSFSLDSTIDADQRVLRIQNTDDNDKYDMSFNQNSASGKHEHLNLTEDFQSSECKESLMDLSHLNKWESIPNTEKSYKCDVCGKIFHQSSALTRHQRIHTREKPYKCKECEKSFSQSSSLSRHKRIHTREKPYKCEASDKSCEASDKSCSPSSGIIQHKKIHTRAKSYKCSSCERVFSRSVHLTQHQKIHKEMPCKCTVCGSDFCHTSYLLEHQRVHHEEKAYEYDEYGLAYIKQQGIHFREKPYTCSECGKDFRLNSHLIQHQRIHTGEKAHECNECGKAFSQTSCLIQHHKMHRKEKSYECNEYEGSFSHSSDLILQQEVLTRQKAFDCDVWEKNSSQRAHLVQHQSIHTKENS
B3: Protein NOXP20 (Homo sapiens), Q8IWE2 (parent)
chain: MSDDAGDTLATGDKAEVTEMPNSDSLPEDAEVHCDSAAVSHEPTPADPRGEGHENAAVQGAGAAAIGPPVQPQDANALEPPLNGDVTEDTLAECIDSVSLEAEPRSEIPLQEQNYLAVDSPPSGGGWAGWGSWGKSLLSSASATVGHGLTAVKEKAGATLRIHGVNSGSSEGAQPNTENGVPEITDAATDQGPAESPPTSPSSASRGMLSAITNVVQNTGKSVLTGGLDALEFIGKKTMNVLAESDPGFKRTKTLMERTVSLSQMLREAKEKEKQRLAQQLTMERTAHYGMLFDEYQGLSHLEALEILSNESESKVQSFLASLDGEKLELLKNDLISIKDIFAAKELENEENQEEQGLEEKGEEFARMLTELLFELHVAATPDKLNKAMKRAHDWVEEDQTVVSVDVAKVSEEETKKEEKEEKSQDPQEDKKEEKKTKTIEEVYMSSIESLAEVTARCIEQLHKVAELILHGQEEEKPAQDQAKVLIKLTTAMCNEVASLSKKFTNSLTTVGSNKKAEVLNPMISSVLLEGCNSTTYIQDAFQLLLPVLQVSHIQTSCLKAQP
partner: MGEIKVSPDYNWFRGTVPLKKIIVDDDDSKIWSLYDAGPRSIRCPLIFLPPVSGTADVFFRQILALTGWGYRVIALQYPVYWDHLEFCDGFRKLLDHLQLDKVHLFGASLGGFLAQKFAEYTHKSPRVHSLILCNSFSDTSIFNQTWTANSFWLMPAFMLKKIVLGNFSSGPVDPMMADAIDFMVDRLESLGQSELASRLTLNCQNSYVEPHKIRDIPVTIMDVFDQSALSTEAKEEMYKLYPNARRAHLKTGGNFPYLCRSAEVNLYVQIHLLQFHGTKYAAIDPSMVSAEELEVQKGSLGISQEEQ
B4: Tuftelin-interacting protein 11 (Homo sapiens), Q9UBB9 (parent)
chain: MSLSHLYRDGEGRIDDDDDERENFEITDWDLQNEFNPNRQRHWQTKEEATYGVWAERDSDDERPSFGGKRARDYSAPVNFISAGLKKGAAEEAELEDSDDEEKPVKQDDFPKDFGPRKLKTGGNFKPSQKGFAGGTKSFMDFGSWERHTKGIGQKLLQKMGYVPGRGLGKNAQGIINPIEAKQRKGKGAVGAYGSERTTQSMQDFPVVDSEEEAEEEFQKELSQWRKDPSGSKKKPKYSYKTVEELKAKGRISKKLTAPQKELSQVKVIDMTGREQKVYYSYSQISHKHNVPDDGLPLQSQQLPQSGKEAKAPGFALPELEHNLQLLIDLTEQEIIQNDRQLQYERDMVVNLFHELEKMTEVLDHEERVISNLSKVLEMVEECERRMQPDCSNPLTLDECARIFETLQDKYYEEYRMSDRVDLAVAIVYPLMKEYFKEWDPLKDCTYGTEIISKWKSLLENDQLLSHGGQDLSADAFHRLIWEVWMPFVRNIVTQWQPRNCDPMVDFLDSWVHIIPVWILDNILDQLIFPKLQKEVENWNPLTDTVPIHSWIHPWLPLMQARLEPLYSPIRSKLSSALQKWHPSDSSAKLILQPWKDVFTPGSWEAFMVKNIVPKLGMCLGELVINPHQQHMDAFYWVIDWEGMISVSSLVGLLEKHFFPKWLQVLCSWLSNSPNYEEITKWYLGWKSMFSDQVLAHPSVKDKFNEALDIMNRAVSSNVGAYMQPGARENIAYLTHTERRKDFQYEAMQERREAENMAQRGIGVAASSVPMNFKDLIETKAEEHNIVFMPVIGKRHEGKQLYTFGRIVIYIDRGVVFVQGEKTWVPTSLQSLIDMAK
partner: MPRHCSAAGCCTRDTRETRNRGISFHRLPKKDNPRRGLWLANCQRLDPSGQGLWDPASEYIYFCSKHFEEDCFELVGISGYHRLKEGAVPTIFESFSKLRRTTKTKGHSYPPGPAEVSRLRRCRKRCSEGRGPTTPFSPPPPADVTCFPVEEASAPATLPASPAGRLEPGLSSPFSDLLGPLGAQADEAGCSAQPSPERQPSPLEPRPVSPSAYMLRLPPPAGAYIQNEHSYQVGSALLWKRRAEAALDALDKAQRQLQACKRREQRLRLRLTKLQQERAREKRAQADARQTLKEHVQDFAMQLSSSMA
B5: TNF receptor-associated factor 2 (Homo sapiens), Q12933 (parent)
chain: MAAASVTPPGSLELLQPGFSKTLLGTKLEAKYLCSACRNVLRRPFQAQCGHRYCSFCLASILSSGPQNCAACVHEGIYEEGISILESSSAFPDNAARREVESLPAVCPSDGCTWKGTLKEYESCHEGRCPLMLTECPACKGLVRLGEKERHLEHECPERSLSCRHCRAPCCGADVKAHHEVCPKFPLTCDGCGKKKIPREKFQDHVKTCGKCRVPCRFHAIGCLETVEGEKQQEHEVQWLREHLAMLLSSVLEAKPLLGDQSHAGSELLQRCESLEKKTATFENIVCVLNREVERVAMTAEACSRQHRLDQDKIEALSSKVQQLERSIGLKDLAMADLEQKVLEMEASTYDGVFIWKISDFARKRQEAVAGRIPAIFSPAFYTSRYGYKMCLRIYLNGDGTGRGTHLSLFFVVMKGPNDALLRWPFNQKVTLMLLDQNNREHVIDAFRPDVTSSSFQRPVNDMNIASGCPLFCPVSKMEAKNSYVRDDAIFIKAIVDLTGL
partner: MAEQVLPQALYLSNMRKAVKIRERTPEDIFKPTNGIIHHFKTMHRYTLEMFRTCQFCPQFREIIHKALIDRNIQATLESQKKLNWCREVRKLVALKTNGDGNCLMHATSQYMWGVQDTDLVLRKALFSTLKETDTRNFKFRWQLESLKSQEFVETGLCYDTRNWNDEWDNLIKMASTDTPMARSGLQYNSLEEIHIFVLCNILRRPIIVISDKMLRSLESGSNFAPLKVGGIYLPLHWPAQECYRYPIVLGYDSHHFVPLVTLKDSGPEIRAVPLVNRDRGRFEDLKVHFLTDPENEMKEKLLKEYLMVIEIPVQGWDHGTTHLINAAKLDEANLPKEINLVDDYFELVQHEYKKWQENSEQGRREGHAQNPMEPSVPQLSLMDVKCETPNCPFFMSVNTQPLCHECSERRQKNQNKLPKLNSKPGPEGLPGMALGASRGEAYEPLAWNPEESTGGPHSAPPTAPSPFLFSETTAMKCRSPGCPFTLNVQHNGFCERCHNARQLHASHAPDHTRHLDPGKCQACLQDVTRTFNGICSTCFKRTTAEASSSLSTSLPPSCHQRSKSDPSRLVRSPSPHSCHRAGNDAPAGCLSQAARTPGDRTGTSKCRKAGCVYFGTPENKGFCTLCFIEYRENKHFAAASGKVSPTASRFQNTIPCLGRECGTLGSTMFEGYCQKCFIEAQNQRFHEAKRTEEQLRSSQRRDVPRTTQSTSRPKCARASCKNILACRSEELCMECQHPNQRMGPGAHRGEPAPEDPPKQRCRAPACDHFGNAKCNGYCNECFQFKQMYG

Variants of: B1
Settings: with gopc_human GOPC

Variant | effect of a mutation on the interaction
C294R | with no effect
P627A | with no effect

Variants of: B1
Settings: with cep70_human CEP70, Q8NHQ1
cep70_human CEP70, Q8NHQ1, sequence (Q8NHQ1 whole entry): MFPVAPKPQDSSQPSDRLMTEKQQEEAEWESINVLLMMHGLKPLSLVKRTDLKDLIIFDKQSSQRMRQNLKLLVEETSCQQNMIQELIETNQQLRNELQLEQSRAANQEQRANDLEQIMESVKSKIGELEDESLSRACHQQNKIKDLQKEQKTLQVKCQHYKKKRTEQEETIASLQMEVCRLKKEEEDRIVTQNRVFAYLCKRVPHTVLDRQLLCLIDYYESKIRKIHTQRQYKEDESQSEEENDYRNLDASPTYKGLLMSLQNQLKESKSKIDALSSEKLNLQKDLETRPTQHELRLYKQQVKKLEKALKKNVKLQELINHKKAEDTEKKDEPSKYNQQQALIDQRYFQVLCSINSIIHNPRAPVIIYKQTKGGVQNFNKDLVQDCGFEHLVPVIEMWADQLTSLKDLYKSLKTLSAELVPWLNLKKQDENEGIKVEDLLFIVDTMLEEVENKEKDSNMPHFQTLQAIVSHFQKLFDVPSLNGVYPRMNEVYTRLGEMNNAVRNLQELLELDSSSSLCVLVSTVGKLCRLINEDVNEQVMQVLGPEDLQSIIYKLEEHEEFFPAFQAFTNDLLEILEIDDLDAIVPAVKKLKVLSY

Variant | effect of a mutation on the interaction
C294R | with no effect
P627A | with no effect

Variants of: B2
Settings: with rint1_human RINT1, Q6NUQ1
rint1_human RINT1, Q6NUQ1, sequence (Q6NUQ1 whole entry): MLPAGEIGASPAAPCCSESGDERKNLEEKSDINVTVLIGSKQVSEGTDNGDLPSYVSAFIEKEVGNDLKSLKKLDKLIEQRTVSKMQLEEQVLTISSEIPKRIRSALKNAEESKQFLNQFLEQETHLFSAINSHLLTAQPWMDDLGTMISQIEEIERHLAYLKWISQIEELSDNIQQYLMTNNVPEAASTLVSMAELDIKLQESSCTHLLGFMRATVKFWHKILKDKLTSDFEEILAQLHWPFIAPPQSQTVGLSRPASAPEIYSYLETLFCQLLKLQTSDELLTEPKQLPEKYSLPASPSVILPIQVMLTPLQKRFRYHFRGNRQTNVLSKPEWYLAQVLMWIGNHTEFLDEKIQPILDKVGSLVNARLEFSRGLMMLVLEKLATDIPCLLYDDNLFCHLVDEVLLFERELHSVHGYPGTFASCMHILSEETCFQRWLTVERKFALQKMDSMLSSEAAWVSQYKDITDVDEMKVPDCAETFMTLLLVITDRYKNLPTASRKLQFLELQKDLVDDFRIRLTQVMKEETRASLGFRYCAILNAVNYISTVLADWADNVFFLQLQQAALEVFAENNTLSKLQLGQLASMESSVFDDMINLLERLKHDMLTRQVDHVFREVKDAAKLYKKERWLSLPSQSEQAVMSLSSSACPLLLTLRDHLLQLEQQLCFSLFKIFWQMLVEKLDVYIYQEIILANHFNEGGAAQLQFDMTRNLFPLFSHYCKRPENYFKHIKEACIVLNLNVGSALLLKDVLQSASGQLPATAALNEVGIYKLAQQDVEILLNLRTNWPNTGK

Variant | effect of a mutation on the interaction
S192R | with no effect

Variants of: B2
Settings: with int13_human INTS13, Q9NVM9
int13_human INTS13, Q9NVM9, sequence (Q9NVM9 whole entry): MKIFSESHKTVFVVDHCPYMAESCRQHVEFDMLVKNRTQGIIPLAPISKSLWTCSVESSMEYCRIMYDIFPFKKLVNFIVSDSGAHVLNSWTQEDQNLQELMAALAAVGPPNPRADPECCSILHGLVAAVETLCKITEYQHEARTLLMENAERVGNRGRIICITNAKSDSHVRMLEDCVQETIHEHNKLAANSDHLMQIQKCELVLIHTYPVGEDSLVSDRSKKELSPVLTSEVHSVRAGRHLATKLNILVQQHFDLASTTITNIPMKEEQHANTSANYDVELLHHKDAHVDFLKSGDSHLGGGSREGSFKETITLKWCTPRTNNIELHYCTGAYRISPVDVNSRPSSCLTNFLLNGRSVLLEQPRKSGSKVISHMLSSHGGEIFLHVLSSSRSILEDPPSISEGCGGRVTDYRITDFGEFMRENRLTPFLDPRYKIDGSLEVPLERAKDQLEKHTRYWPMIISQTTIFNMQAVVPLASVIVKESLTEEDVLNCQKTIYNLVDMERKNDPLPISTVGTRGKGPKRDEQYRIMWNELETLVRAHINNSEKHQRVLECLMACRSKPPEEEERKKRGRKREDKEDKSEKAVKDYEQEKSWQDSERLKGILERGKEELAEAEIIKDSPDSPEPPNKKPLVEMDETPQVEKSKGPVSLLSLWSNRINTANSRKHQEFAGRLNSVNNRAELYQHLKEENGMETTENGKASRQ

Variant | effect of a mutation on the interaction
C466G | with no effect

Variants of: B3
Settings: with spg21_human SPG21, Q9NZD8

Variant | effect of a mutation on the interaction
S40L | with no effect

Variants of: B4
Settings: with thap7_human THAP7, Q9BT49

Variant | effect of a mutation on the interaction
R8Q | with no effect
S688L | with no effect

Variants of: B5
Settings: with tnap3_human TNFAIP3, P21580

Variant | effect of a mutation on the interaction
T134A | with no effect
V206I | with no effect
A264T | with no effect
